# Tests used:
# Assay in all cases: cell-based or functional assay
# [1] = target: HIV-1 Env of isolate 8106 (HIV-1)
# [2] = target: HIV-1 Env of clone WITO (HIV-1)
# [3] = target: HIV-1 Env of isolate 8117 (HIV-1)
# [4] = target: HIV-1 Env of clone CH077 (HIV-1)
# [5] = target: HIV-1 Env of strain BaL (HIV-1)
# [6] = target: HIV-1 Env of isolate 8318 (HIV-1)
# [7] = target: HIV-1 Env gp120 of virus WITO, on infected cells (HIV-1)
# [8] = target: HIV-1 Env of isolate 92US712 (HIV-1)
# [9] = target: HIV-1 Env of isolate 8134 (HIV-1)
# [10] = target: HIV-1 Env of isolate 8398 (HIV-1)
# [11] = target: HIV-1 Env of isolate 8359 (HIV-1)
# [12] = target: HIV-1 Env of isolate 92HT593 (HIV-1)
# [13] = target: HIV-1 Env gp120 of virus 92US727, on infected cells (HIV-1)
# [14] = target: HIV-1 Env of isolate 8110 (HIV-1)
# [15] = target: HIV-1 Env of clone CH106 (HIV-1)
substance,measurement,setting,value
PGT-121.60 (antibody),"IC50 (neutralization, CEM.NKr.CCR5.LucR based assay)",[1],0.091 µg/mL
same,"IC50 (neutralization, CEM.NKr.CCR5.LucR based assay)",[2],1.05 µg/mL
same,"IC50 (neutralization, CEM.NKr.CCR5.LucR based assay)",[3],> 100 µg/mL
same,"IC50 (neutralization, CEM.NKr.CCR5.LucR based assay)",[4],> 100 µg/mL
same,"IC50 (neutralization, CEM.NKr.CCR5.LucR based assay)",[5],0.015 µg/mL
same,"IC50 (neutralization, CEM.NKr.CCR5.LucR based assay)",[6],0.048 µg/mL
same,killing EC50; HIV-infected CD4 T cells (WITO); effector cells Eff Memory CD4,[7],> 10 µg/mL
same,killing EC50; HIV-infected CD4 T cells (WITO); effector cells Memory CD4,[7],> 10 µg/mL
same,killing EC50; HIV-infected CD4 T cells (WITO); effector cells Memory CD8,[7],> 10 µg/mL
same,killing EC50; HIV-infected CD4 T cells (WITO); effector cells γ Δ CD4,[7],0.36 µg/mL
same,killing EC50; HIV-infected CEM-NKr-CCR5-LucR CD4 T cells; PBMC donor 4176; virus WITO,[7],> 100 µg/mL
same,killing EC50; HIV-infected CEM-NKr-CCR5-LucR CD4 T cells; PBMC donor 4288; virus WITO,[7],0.767 µg/mL
same,killing Emax; HIV-infected CD4 T cells (WITO); effector cells Eff Memory CD4,[7],0%
same,killing Emax; HIV-infected CD4 T cells (WITO); effector cells Memory CD4,[7],9%
same,killing Emax; HIV-infected CD4 T cells (WITO); effector cells Memory CD8,[7],9%
same,killing Emax; HIV-infected CD4 T cells (WITO); effector cells γ Δ CD4,[7],18%
same,killing Emax; HIV-infected CEM-NKr-CCR5-LucR CD4 T cells; PBMC donor 4176; virus WITO,[7],0%
same,killing Emax; HIV-infected CEM-NKr-CCR5-LucR CD4 T cells; PBMC donor 4288; virus WITO,[7],46%
same,"IC50 (neutralization, CEM.NKr.CCR5.LucR based assay)",[8],0.019 µg/mL
same,"IC50 (neutralization, CEM.NKr.CCR5.LucR based assay)",[9],0.062 µg/mL
same,"IC50 (neutralization, CEM.NKr.CCR5.LucR based assay)",[10],0.028 µg/mL
same,"IC50 (neutralization, CEM.NKr.CCR5.LucR based assay)",[11],0.337 µg/mL
same,"IC50 (neutralization, CEM.NKr.CCR5.LucR based assay)",[12],0.024 µg/mL
same,Maximum percent of HIV-infected cells killed; PBMC-derived effector cells; donor 1004344; virus 92US727,[13],63.7%
same,Maximum percent of HIV-infected cells killed; tonsil-derived effector cells; donor 1004344; virus 92US727,[13],0%
same,Potency (IC50) of killing HIV-infected cells; PBMC-derived effector cells; donor 1004344; virus 92US727,[13],0.014 µg/mL
same,Potency (IC50) of killing HIV-infected cells; tonsil-derived effector cells; donor 1004344; virus 92US727,[13],> 10 µg/mL
same,"IC50 (neutralization, CEM.NKr.CCR5.LucR based assay)",[14],0.514 µg/mL
same,"IC50 (neutralization, CEM.NKr.CCR5.LucR based assay)",[15],> 100 µg/mL
